As a reminder, the IC50 is the midpoint of a concentration-inhibition curve. The Ki is the dissociation constant of the complex between target and ligand, obtained from inhibition or displacement. Low values mean higher affinity, high ones lower affinity.

From paper PMC6405639 come the findings set out here.

The target in experiment [1] is Y2R_cysteine_deficient_eYFP (in HEK293 cells) (human) (UniProt P49146).
Experiment [2] shares this target. This is another data set of the same source.
For experiment [3] the target is unchanged. Briefly: radioligand binding; displacement of 60 pM [125I]-PYY from membrane preparations (0.75 μg protein) of transiently transfected HEK293 cells; HBSS with 1% BSA, room temperature, 3 h; filtration.

Sequence of Y2R_cysteine_deficient_eYFP (in HEK293 cells) (human) (P49146 other isoform, or with tags, fused parts or gaps): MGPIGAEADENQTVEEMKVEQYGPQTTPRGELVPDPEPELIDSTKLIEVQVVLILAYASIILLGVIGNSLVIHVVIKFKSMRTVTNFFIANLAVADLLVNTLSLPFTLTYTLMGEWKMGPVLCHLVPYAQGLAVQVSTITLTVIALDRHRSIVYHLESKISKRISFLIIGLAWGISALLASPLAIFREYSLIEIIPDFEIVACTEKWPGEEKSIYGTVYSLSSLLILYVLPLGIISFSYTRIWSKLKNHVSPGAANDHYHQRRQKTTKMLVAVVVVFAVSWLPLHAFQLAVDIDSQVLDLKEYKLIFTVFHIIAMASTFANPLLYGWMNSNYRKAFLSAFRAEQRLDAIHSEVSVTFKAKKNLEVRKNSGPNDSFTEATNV

In experiment [1], “[K^22[(Ahx)2-biotin]Bpa^27]NPY (peptide)” showed an EC50 of IP-one accumulation in HEK293 cells co-transfected with the receptor and the chimeric G protein GαΔ6qi4myr of 4 nM; an Emax of IP-one accumulation, normalised to the Y2R/NPY curve of 102%.
In experiment [2], 5(6)-TAMRA-Ahx(5-24)NPY (peptide) registered a potency in the IP-one accumulation assay of 3.6 nM. In experiment [3], this substance displayed an IC50 of 39 nM and a Ki of 11.2 nM. In experiment [1], this substance displayed an EC50 of IP-one accumulation in HEK293 cells co-transfected with the receptor and the chimeric G protein GαΔ6qi4myr of 3.4 nM; an Emax of IP-one accumulation, normalised to the Y2R/NPY curve of 95%.
